# Laboratory results: the DeepSol protein solubility set
# Experiment: soluble on expression in E. coli; label from the status in PepcDB or PDB records
row,Sequence,soluble on expression in E. coli
1,MALNADDEDFEWEPPSEAEMKVIQARRERQDKISKLMGDYLLKGYKMLGECCELCGTILLQDKQKKNYCVACQELDSDVDKDNPALNAQAALSQVRERQLATQPVPESNGASSSEPPLSITGQPRPEHCEGAASGLRGPPPTVQPTPLSIPTPASNFLPPSNPPVQTTPPVGSSGSSLHHHPALSSAEEAVLHKLRWATQELQHAASVEASIQLCNLIRGCAESLRSLKELQLS,not soluble
2,MALNVAPVRDTKWLTLEVCRQFQRGTCSRSDEECKFAHPPKSCQVENGRVIACFDSLKGRCSRENCKYLHPPTHLKTQLEINGRNNLIQQKTAAAMLAQQMQFMFPGTPLHPVPTFPVGPAIGTNTAISFAPYLAPVTPGVGLVPTEILPTTPVIVPGSPPVTVPGSTATQKLLRTDKLEVCREFQRGNCARGETDCRFAHPADSTMIDTSDNTVTVCMDYIKGRCMREKCKYFHPPAHLQAKIKAAQHQANQAAVAAQAAAAAATVMAFPPGALHPLPKRQALEKSNGTSAVFNPSVLHYQQALTSAQLQQHAAFIPTVPMMHSATSATVSAATTPATSVPFAATATANQIILK,soluble
3,MALPQDSVNMALFCDFENIALGVRDTKFEKFDIKPVLEKLLLKGSIVVKKAYCDWDRYKTFKAAMHEASFELIEIPHVRQSGKNSADIRLVVDALDLCYTKAHVDTFVIISGDSDFSPLVSKLRENAKRVIGVGVKNSTSDLLVANCDEFIFYDDLAR,not soluble
4,MALTEQKRVRLEKLSDENGIISALAFDQRGALKRLMVKHQTEEPTVAQMEELKVLVADELTKYASSMLLDPEYGLPATKALDEKAGLLLAYEKTGYDTTSTKRLPDCLDVWSAKRIKEEGADAVKFLLYYDVDSSDELNQEKQAYIERIGSECVAEDIPFFLEILAYDEKIADAGSVEYAKVKPHKVIGAMKVFSDPRFNIDVLKVEVPVNIKYVEGFAEGEVVYTREEAAAFFKAQDEATNLPYIYLSAGVSAKLFQDTLVFAHESGANFNGVLCGRATWAGSVEAYIKDGEAAARECVRTTGFENIDELNKVLQRTATSWKERV,soluble
5,MALVFVYGTLKRGQPNHRVLRDGAHGSAAFRARGRTLEPYPLVIAGEHNIPWLLHLPGSGRLVEGEVYAVDERMLRFLDDFESCPALYQRTVLRVQLLEDRAPGAEEPPAPTAVQCFVYSRATFPPEWAQLPHHDSYDSEGPHGLRYNPRENR,soluble
6,MALVKIVRIETFPLFHRLEKPYGDANGFKRYRTCYLIRIITESGIDGWGECVDWLPALHVGFTKRIIPFLLGKQAGSRLSLVRTIQKWHQRAASAVSMALTEIAAKAADCSVCELWGGRYREEIPVYASFQSYSDSPQWISRSVSNVEAQLKKGFEQIKVKIGGTSFKEDVRHINALQHTAGSSITMILDANQSYDAAAAFKWERYFSEWTNIGWLEEPLPFDQPQDYAMLRSRLSVPVAGGENMKGPAQYVPLLSQRCLDIIQPDVMHVNGIDEFRDCLQLARYFGVRASAHAYDGSLSRLYALFAQACLPPWSKMKNDHIEPIEWDVMENPFTDLVSLQPSKGMVHIPKGKGIGTEINMEIVNRYKWDGSAYEGHHHHHH,soluble
7,MAMAKARKPREALLWALSDLEENDFKKLKFYLRDMTLSEGQPPLARGELEGLIPVDLAELLISKYGEKEAVKVVLKGLKVMNLLELVDQLSHICLHDYREVYREHVRCLEEWQEAGVNGRYNQVLLVAKPSSESPESLACPFPEQELESVTVEALFDSGEKPSLAPSLVVLQGSAGTGKTTLARKMVLDWATGTLYPGRFDYVFYVSCKEVVLLLESKLEQLLFWCCGDNQAPVTEILRQPERLLFILDGFDELQRPFEEKLKKRGLSPKESLLHLLIRRHTLPTCSLLITTRPLALRNLEPLLKQARHVHILGFSEEERARYFSSYFTDEKQADRAFDIVQKNDILYKACQVPGICWVVCSWLQGQMERGKVVLETPRNSTDIFMAYVSTFLPPDDDGGCSELSRHRVLRSLCSLAAEGIQHQRFLFEEAELRKHNLDGPRLAAFLSSNDYQLGLAIKKFYSFRHISFQDFFHAMSYLVKEDQSRLGKESRREVQRLLEVKEQEGNDEMTLTMQFLLDISKKDSFSNLELKFCFRISPCLAQDLKHFKEQMESMKHNRTWDLEFSLYEAKIKNLVKVKFLKGKSEERMKETLP,soluble
8,MAMAVSGAVLSGLGSSFLTGGKRGATALASGVGTGAQRVGRKTLIVAAAAAQPKKSWIPAVKGGGNFLDPEWLDGSLPGDFGFDPLGLGKDPAFLKWYREAELIHGRWAMAAVLGIFVGQAWSGVAWFEAGAQPDAIAPFSFGSLLGTQLLLMGWVESKRWVDFFNPDSQSVEWATPWSKTAENFANYTGDQGYPGGRFFDPLGLAGKNRDGVYEPDFEKLERLKLAEIKHSRLAMVAMLIFYFEAGQGKTPLGALGL,soluble
9,MAMDNQGWFSNETATFGDRLAGAREAAGLTQEEMARRLGVRLKTLQSWEDDLAEPRANRLQMMAGMLNVSLRWLLTGEGEGAEGPSEPAILTSEGREALAELARMRTQMLALAQEMGQLEKRMRALLRKEAE,not soluble
10,MAMGRTTQFTLDEVAKHADKDSCWLVIDGKVYAVEKFLNEHPGGEDVLLETAGRDATREFEDVGHSKSAREQLKEFYIGDVREPTAEELAAKRAVQASAAAERRDGDGVRANGLGKERLFAGGAFGAEPLSGGSSTWTLLKRLFVPVCIAVLVYLVREYSKQVQTGG,not soluble
11,MAMIGLVGKPNVGKSTMFNALTEKPAEIGNYPFTTIQPNKGIAYITSPCPCKELGVKCNPRNSKCIDGIRHIPVEVIDVAGLVPGAHEGRGMGNKFLDDLRQADAFILVVDASGKTDAEGNPTENYDPVEDVKFLLNEIDMWIYSILTKNWDKLARRAQQEKNIVKALKDQLSGLNIDEDDIKMAIRDMDESPIKWTEEDLLNLAKKLRKISKPMIIAANKADHPDAEKNIERLKKEFKDYIVIPTSAEIELALKRAEKAGIIKRKENDFEIIDESKVNEQMRRAFDYIKDFLKKYGGTGVQECINKAYFDLLDMIVVYPVEDENKFSDKQGNVLPDAFLVKKGSTARDLAYKVHTELGEKFIYAIDAKKKIRVGADYELKHNDIIKIVSAAK,soluble
12,MAMIHEMILDGKVVRYRVVEKPVKYVTLRVLEDGTILVVTPLEQIVREVLIKKKDWILSKISIVEEAKELSRKGFPLFGKFYSLEMGEKFEINREELRITFPGIEFLRNWIKREIKRKAREIAKDFGISPKRIYVKAMRTKWGSATWRKSITLNFSSAALPEELFHYLVIHELAHLIELNHSKRFWSLVASYHPDYKKKRRELKKWWFIVHSNETWRAILQWPEGLEHHHHHH,soluble
13,MAMNLRKNQAPLYIKVHEIDNTAIIVNDGGLPKGTVFSCGLVLEEDVPQGHKVALTDLNQGDEIVRYGEVIGFADETIKRGSWIREALVRMPAP,not soluble
14,MAMPTIRHVRAFIVRGGGADYHDQPGGHWIDDHISTPMARYPEYRQSRQSFGINVLGTLVVEIEASDGTVGFAVTTGGEIGAFIVEKHLARFLEGQLVTDIEKMWDQMYFSTLYYGRKGVVLNTISGVDLALWDLLAKVRKEPVYQLLGGPVRDELVFYATGARPDLAKEMGFIGGKLPLQHGPAEGDAGLRQNLDKLAEMRSRVGDDFWLMYDCWMSLDVPYATRLAQAAHEYGLKWIEECLPPDDYWGYAELRRNVPRGMMVSTGEHEATRWGFRMLLEMQCCDLIQPDVGWCGGITELIKISALADAHNVMVVPHGSSVYSYHFVVTRHNSPFAEFLMMAPKADEVVPMFTPLLLDEPVPVNGRMKVPDAPGFGVRLNPECALVRPYAR,soluble
15,MANEKQYPMTKEGKEKLEQELEYLKTVKRKEVVERIKIARGFGDLSENSEYDAAKDEQAFVESRIQMLENMIRNAVIIEEDKENPDVVSLGKSVTFIELPDGEEETYTIVGSAEADPFEGKISNDSPIAKSLLGRRVGDEVTVQTPGGEMLVKIVAVK,soluble
16,MANHVSLILPPLSLYIHIPWCVQKCPYCDFNSHTQKGTIPEAEYIQHLLADLSQDLVTYKTAIANRKIHSIFIGGGTPSLFSAEAIAYLLAEIKQRIAFAPKIEITLEANPGTAEAERFICYTEAGINRISMGIQSFEEEKLRKLGRIHDAHEAKQAVYFAKNALISPSRTVGLHSFNLDLMHGLPNQTLEQALADLNTAISLNPPHFSWYQLTIEPNTMFYYRQPTLPDDDELWAIFEQGHQLLTMAGYQQYETSAYAKQGFQCQHNLNYWRFGDYLAIGCGAHGKISYPSGEIYRFSKTKHPKGYMRGDYRDSQQSIQLDDRPFEFFMNRFRLLEPTPKQEFECYTGLDCERVRPTIDWALNKHYISETSTTWQVTQKGKLFLNELLAGFLTLEHHHHHH,not soluble
17,MANLEKKRVVVTGLGAITPIGNTLQDYWQGLMEGRNGIGPITRFDASDQACRFGGEVKDFDATQFLDRKEAKRMDRFCHFAVCASQQAINDAKLVINELNADEIGVLIGTGIGGLKVLEDQQTILLDKGPSRCSPFMIPMMIANMASGLTAINLGAKGPNNCTVTACAAGSNAIGDAFRLVQNGYAKAMICGGTEAAITPLSYAGFASARALSFRNDDPLHASRPFDKDRDGFVMGEGSGILILEELESALARGAKIYGEMVGYAMTCDAYHITAPVPDGRGATRAIAWALKDSGLKPEMVSYINAHGTSTPANDVTETRAIKQALGNHAYNIAVSSTKSMTGHLLGGSGGIEAVATVMAIAEDKVPPTINLENPDPECDLDYVPGQSRALIVDVALSNSFGFGGHNVTLAFKKYQ,soluble
18,MAPFSPASSDVLVIGGGPSGTALSAELAARGLDVQQLAPHPPRPFPATYGAWLGDLPTWARGCAEQVWTDVRAYTGPQPTSLGQPYALLDNAALLRTLRGLADWTWVEGAALHAERSGAGWTVYGAGGERWQTRLVVDASGHGALVSPVRFPGGAALQTAYGVVARFRRPPVTPGSMVWMDYRTPAPELKRGEATFLYAMHLGGDRYFVEETSLIARPAPTRAELRRRLLARLSAQGTPPHATESEEWVAFPMNAQAPAPGGVLAYGAAAGRVHPVSGFQVAGALSDAPGVATAIATALCQGKDAAAAGWAALWSPERRAAREVHLLGVGALLGLERAELPHFFGTFFGLPREQWARFLHPDTDAGTLARTMLRVFAQTGGRVRLPLARAALAQPAASGRALAAAAGLKILEHHHHHH,not soluble
19,MAPGTAELEIDETLHLLRMVMQREFIHYLETLPGTKELFIDKCLLRPLDMIATSSDMKRHGVKRIMHFDLQKSPQVWNIEIDQRVFFLRPNVENARKIVEYVEESSENRSICVIWCNRQLEECDLAFESSGVIGHITQLSLNMCLLPLESDLFSLQHVESAQPDLFSVANMFVALQNLYGVIPTVYGLGSESKNLWNLVHALCSSNELRARPDQPISHLFLFDRQLDPVPVLLTGASYEGLLHEFFTIDCGKLAFPVDLRKQVQTGPLDFDWIEINPEEDKEAHQQNRGDTVKLDNCEDIFASIRNKHVTAALEFLHSKAKSIQKSIEKSSMIDDVADYRNFVEKDLRALKKDHKHCELHINACEMMMNKVKMEDYRTMFKLEHEMLLGTVTHEEYFDFVFERVPMRSCRDVVLSMMSLASLKLDGVPDDTYNEFVEMYLQKYGYEHMFELQNLRNSRVIYARRHIAHDRTISERARTWETLARKFRIVKGNEPMDMSNPSDMSYVFGARISPLLCKIVEDTIDHGWNQAEYERIIGKDKVLVEENTYIAADRRPDNRTRKAIMVFVNGGITYWEVAALRLLAIQKNFRILICTTHVIKKREYLEVRAKDASSVFGS,not soluble
20,MAPRQLAAADLAVGQVVAQREIRLDAQAFAQFAALTGDAHPIHYDAGYVQRQGLRAPIAHGLLLVAISALGATPLSAQLHDAMVAMVGVEAVFMRPVYVDETVQCVYRVAQIEHVAKGRSKTTIAVSIHTTDAPPDAARQAHCVVHLTFLLKTHLQGLEHHHHHH,not soluble
